The Human Domainome abundance scans (Beltran et al. 2025)
± gives the uncertainty stated by the source.

B1: Integrator complex subunit 12, residues 155 to 213; numbered along this chain, Q96CB8 (parent)
chain: AMEMGLACVVCRQMMVASGNQLVECQECHNLYHRDCHKPQVTDKEANDPRLVWYCARCT

Variants of: B1
Assay: abundance fitness (aPCA) (normalised: wild type 0, dead -1); higher = more abundant; growth selection in yeast, the domain comes from the species named
Settings: Homo sapiens

| Variant | abundance fitness |
| --- | --- |
| V10C | -0.193 ± 0.041 |
| V10S | -0.401 ± 0.034 |
| V10N | -0.191 ± 0.033 |
| G19I | -0.137 ± 0.051 |
| G19M | -0.206 ± 0.078 |
| G19R | -0.116 ± 0.039 |
| G19F | -0.353 ± 0.05 |
| G19W | -0.286 ± 0.065 |
| M4G | -0.044 ± 0.035 |
| M4V | 0.006 ± 0.033 |
| M4S | 0.045 ± 0.032 |
| M4L | -0.027 ± 0.036 |
| M4C | -0.026 ± 0.036 |
| M4Y | -0.168 ± 0.036 |
| A56N | -0.209 ± 0.11 |
| A56R | -0.12 ± 0.041 |
| A56G | -0.057 ± 0.039 |
| A56K | -0.169 ± 0.057 |
| V41G | -0.235 ± 0.041 |
| V41R | -0.308 ± 0.038 |
| V41D | -0.297 ± 0.083 |

| Variant | abundance fitness |
| --- | --- |
| V41L | -0.011 ± 0.045 |
| V41F | -0.175 ± 0.097 |
| V41E | -0.303 ± 0.059 |
| V41S | -0.204 ± 0.05 |
| A17K | 0.037 ± 0.06 |
| A17L | -0.179 ± 0.041 |
| A17V | -0.075 ± 0.035 |
| A17W | -0.388 ± 0.08 |
| A17C | -0.048 ± 0.038 |
| V16Y | -0.144 ± 0.035 |
| V16E | 0.029 ± 0.054 |
| V16I | -0.089 ± 0.035 |
| V16A | 0.042 ± 0.036 |
| V16P | -0.002 ± 0.05 |
| V16N | 0.016 ± 0.036 |
| V16G | 0.037 ± 0.031 |
| V23T | -0.158 ± 0.042 |
| V23N | -0.228 ± 0.037 |
| V23Q | -0.098 ± 0.06 |
| V23L | 0.006 ± 0.032 |
| V23P | -0.518 ± 0.046 |

| Variant | abundance fitness |
| --- | --- |
| V23W | -0.045 ± 0.055 |
| V23H | -0.075 ± 0.044 |
| A7P | 0.069 ± 0.054 |
| A7E | -0.064 ± 0.068 |
| A7T | 0.032 ± 0.04 |
| A7Y | -0.144 ± 0.038 |
| K38W | -0.341 ± 0.055 |
| K38N | -0.209 ± 0.085 |
| K38Y | -0.134 ± 0.071 |
| K38M | -0.05 ± 0.049 |
| K38R | -0.028 ± 0.04 |
| K38E | 0.008 ± 0.046 |
| N30R | -0.01 ± 0.04 |
| N30V | -0.129 ± 0.039 |
| N30Q | 0.028 ± 0.084 |
| N30S | -0.071 ± 0.043 |
| Q13T | -0.089 ± 0.039 |
| Q13I | -0.147 ± 0.035 |
| Q13Y | -0.382 ± 0.036 |
| Q13R | -0.2 ± 0.043 |
| Q13F | -0.354 ± 0.035 |

| Variant | abundance fitness |
| --- | --- |
| Q13C | -0.125 ± 0.038 |
| Y54E | -0.069 ± 0.047 |
| Y54R | 0.116 ± 0.054 |
| A1R | -0.061 ± 0.088 |
| A1P | -0.581 ± 0.19 |
| A1W | -0.199 ± 0.24 |
| C28G | -0.519 ± 0.033 |
| C28M | -0.835 ± 0.064 |
| C28T | -0.749 ± 0.052 |
| K44T | 0.043 ± 0.048 |
| K44G | 0.023 ± 0.04 |
| K44C | 0.059 ± 0.11 |
| K44N | 0.119 ± 0.12 |
| K44H | -0.124 ± 0.079 |
| Y32T | -0.263 ± 0.044 |
| Y32G | -0.335 ± 0.035 |
| Y32Q | -0.3 ± 0.067 |
| Y32C | -0.207 ± 0.04 |
| Y32R | -0.308 ± 0.038 |
| Y32H | -0.254 ± 0.047 |
